Results published in paper PMC6745501, “Plant photoreceptors and their signaling components compete for COP1 binding via VP peptide motifs” (The EMBO Journal, 2019).
Residue numbers refer to the chain shown, from its start.

T1: COP1^349–675,Lys422Ala WD40 domain (Arabidopsis, UniProt P43254 349-675, Lys422Ala)
T1 construct: COP1, Arabidopsis, WD40 domain, residues 349-675, Lys422Ala; also called COP1^Lys422Ala; not shown: His10, N-terminal, cleaved; Twin-Strep, N-terminal, cleaved
T1 sequence (looked up): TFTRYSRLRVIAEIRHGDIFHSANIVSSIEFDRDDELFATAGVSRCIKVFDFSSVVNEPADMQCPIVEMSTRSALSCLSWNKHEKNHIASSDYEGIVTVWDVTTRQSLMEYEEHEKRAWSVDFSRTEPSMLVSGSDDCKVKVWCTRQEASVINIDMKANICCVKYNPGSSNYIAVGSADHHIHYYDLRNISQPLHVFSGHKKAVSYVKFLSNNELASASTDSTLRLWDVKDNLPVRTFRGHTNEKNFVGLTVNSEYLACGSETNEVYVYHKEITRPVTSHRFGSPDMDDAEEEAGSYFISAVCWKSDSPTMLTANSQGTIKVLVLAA

T2: COP1^Tyr441Ala WD40 domain (Arabidopsis, UniProt P43254 349-675, Tyr441Ala)
T2 construct: COP1, Arabidopsis, WD40 domain (mutant of COP1 349-675), Tyr441Ala; not shown: His10, N-terminal, cleaved; Twin-Strep, N-terminal, cleaved
T2 sequence (looked up): T1 sequence (looked up) with A74K, Y93A

T3: UVR8^ValPro/AlaAla (recombinant) (Arabidopsis, UniProt Q9FN03 1-440, ValPro/AlaAla)
T3 construct: UVR8, Arabidopsis, Val-Pro of the C-terminal VP motif mutated to Ala-Ala; compared with the wild type (full-length) protein, monomer ~50 kDa; also called the mutant photoreceptor; not shown: His10, N-terminal, cleaved; Twin-Strep, N-terminal, cleaved
T3 sequence (looked up): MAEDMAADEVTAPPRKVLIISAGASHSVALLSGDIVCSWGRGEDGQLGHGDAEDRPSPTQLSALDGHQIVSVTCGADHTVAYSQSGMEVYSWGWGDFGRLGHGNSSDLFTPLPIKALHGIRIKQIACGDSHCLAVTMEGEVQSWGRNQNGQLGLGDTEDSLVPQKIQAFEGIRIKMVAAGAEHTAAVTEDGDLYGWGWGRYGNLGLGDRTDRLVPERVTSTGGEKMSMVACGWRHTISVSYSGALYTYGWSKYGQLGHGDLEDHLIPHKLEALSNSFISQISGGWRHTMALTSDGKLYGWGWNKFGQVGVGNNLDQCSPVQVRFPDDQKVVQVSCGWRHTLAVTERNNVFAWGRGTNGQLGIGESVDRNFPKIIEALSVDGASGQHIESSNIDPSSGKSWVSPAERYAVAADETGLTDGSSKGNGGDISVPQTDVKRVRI

T4: UVR8^12–381 β‐propeller core (Arabidopsis, UniProt Q9FN03 12-381)
T4 construct: also called UVR8 β‐propeller core; UVR8 core domain; not shown: His10, N-terminal, cleaved; Twin-Strep, N-terminal, cleaved
T4 sequence (looked up): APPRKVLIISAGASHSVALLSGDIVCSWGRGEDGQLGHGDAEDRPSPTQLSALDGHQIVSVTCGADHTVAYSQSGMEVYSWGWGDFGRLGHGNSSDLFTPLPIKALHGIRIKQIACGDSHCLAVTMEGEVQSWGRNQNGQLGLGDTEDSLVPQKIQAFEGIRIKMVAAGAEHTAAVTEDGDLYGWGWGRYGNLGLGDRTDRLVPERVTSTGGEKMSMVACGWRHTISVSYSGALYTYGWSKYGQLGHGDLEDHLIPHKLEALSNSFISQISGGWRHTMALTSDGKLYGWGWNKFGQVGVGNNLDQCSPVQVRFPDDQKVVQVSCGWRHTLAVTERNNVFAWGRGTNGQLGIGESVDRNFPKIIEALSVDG

T5: full‐length UVR8 (recombinant) (Arabidopsis, UniProt Q9FN03 1-440)
T5 construct: UV … LOCUS 8 (UVR8) UV-B photoreceptor, Arabidopsis, full length; Dimer in the ground state; monomerized by 60 min UV-B on ice where the assay says so; not shown: His10, N-terminal, cleaved; Twin-Strep, N-terminal, cleaved
T5 sequence (looked up): T3 sequence (looked up) with A410V, A411P

B1: HY5^39–48 VP peptide (peptide, UniProt O24646 39-48, looked up)
peptide: EIRRVPEFGG
notes: ELONGATED HYPOCOTYL 5 (HY5) bZIP transcription factor, residues 39-48 (holds Arg41, Glu45); also called HY5 VP peptide; HY5 peptide; source: synthetic peptide (Peptide Specialty Labs GmbH)
B2: Arabidopsis COP1^349–675 WD40 domain (domain or fragment, UniProt P43254 349-675, looked up)
chain: T1 sequence (looked up) with A74K
notes: COP1 (CONSTITUTIVELY PHOTOMORPHOGENIC 1) E3 ubiquitin ligase, Arabidopsis, WD40 domain, residues 349-675; also called COP1 WD40 domain; COP1 WD40; not shown: His10, N-terminal, cleaved; Twin-Strep, N-terminal, cleaved

What was measured:
Conditions in all cases: both partners purified
[1] = molecular target: T1, COP1^349–675,Lys422Ala WD40 domain; test: ITC; VP peptide (titrant, 500-3,000 μM) injected into COP1 WD40 in the cell at about 10-fold lower concentration; 150 mM NaCl, 20 mM HEPES 7.4, 2 mM BME; 25°C; one-site binding model
[2] = molecular target: B2; test: as above
[3] = molecular target: T2, COP1^Tyr441Ala WD40 domain; test: as above
[4] = molecular target: T3, UVR8^ValPro/AlaAla (recombinant); test: SEC; analytical SEC, Superdex 200 Increase 10/300 GL; ~4 μM of each protein mixed; UVR8 form pre-monomerized by UV-B; 150 mM NaCl, 20 mM HEPES 7.4, 2 mM BME; fractions on Coomassie-stained SDS-PAGE
[5] = molecular target: T4, UVR8^12–381 β‐propeller core; test: not stated; UV-B-activated UVR8 forms versus COP1 WD40 and its mutants; Appendix Figs S4B, S4C, S6A, S6B, not shown (ITC or GCI)
[6] = molecular target: T5, full‐length UVR8 (recombinant); test: not stated; non-photoactivated (ground-state) full-length UVR8 versus COP1 WD40; Appendix Fig S4A, not shown (ITC or GCI)

| stoichiometry N [1] | Kd [2] [µM] | fold stronger binding than UVR8^406–413 [2] [fold] | stoichiometry N [3] | binding result [4] | Kd [5] [µM] | Kd [6] [µM] | Binder |
| --- | --- | --- | --- | --- | --- | --- | --- |
| 0.83 | ~20 | ~8 | 0.92 |  |  |  | B1 |
|  |  |  |  | binds | ~0.5 | ~1 | B2 |
